Targets include SARS-CoV-2 WT S-ECD蛋白 (SARS-CoV-2, UniProt P0DTC2 14-1213); SARS-CoV-2 Alpha株S-ECD蛋白 (SARS-CoV-2 Alpha株 (B.1.1.7)); SARS-CoV-2 Beta株S-ECD蛋白 (SARS-CoV-2 Beta株 (B.1.351)); SARS-CoV-2 Gamma株S-ECD蛋白 (SARS-CoV-2 Gamma株 (P.1)); SARS-CoV-2 Delta株S-ECD蛋白 (SARS-CoV-2 Delta株 (B.1.617.2)).
The next experiment concerns the target SARS-CoV-2 Alpha株病毒的S蛋白 (SARS-CoV-2 Alpha株 (B.1.1.7)). The experiment is described as follows: cell-based or functional assay.
The target of another experiment is SARS-CoV-2 Beta株病毒的S蛋白 (SARS-CoV-2 Beta株 (B.1.351)). The experiment is described as follows: cell-based or functional assay.
Another experiment concerns the target SARS-CoV-2 Gamma株病毒的S蛋白 (SARS-CoV-2 Gamma株 (P.1)). The experiment is described as follows: cell-based or functional assay.
For a further experiment, the target named is SARS-CoV-2 Delta株病毒的S蛋白 (SARS-CoV-2 Delta株 (B.1.617.2)). The experiment is described as follows: cell-based or functional assay.

B1: 全人源抗SARS-CoV-2单克隆抗体ZWD12 (antibody, V domains shown)
VH: EVQLVESGGGLVQPGGTLRLSCVASGFSFSNYWMSWVRQAPGKGLEWVANIKQDGSETHYVDSVKGRFTISRDNAKNSLYLQMNSLRADDTAVYFCVKDRTDWELIRGYFGHWGQGTQITVSS
VL: DIVMTQTPSSLSLSPGDRATLSCRASENIINYLAWYQQRPGQSPRLLIYDASNRATGIPARFSGSGSGTDFTLTISSLEPEDFAVYYCQQRIIWPPYTFGQGTKVDIKR
The Kd is the constant that tells how readily two partners part at equilibrium. Lower therefore signals a tighter complex. As a reminder, the koff is the first-order rate constant of dissociation. A low value points to slow dissociation. The kon is a measure of how fast the partners come together. Read a low kon as slow association. Turning to B1, the Kd in the experiment with SARS-CoV-2 WT S-ECD蛋白 came to 896 pM; with SARS-CoV-2 Alpha株S-ECD蛋白, 826 pM; with SARS-CoV-2 Beta株S-ECD蛋白, 991 pM; with SARS-CoV-2 Gamma株S-ECD蛋白, 1420 pM; with SARS-CoV-2 Delta株S-ECD蛋白, 1910 pM. In addition, the koff stood at 0.000121 s⁻¹ in the experiment with SARS-CoV-2 WT S-ECD蛋白; 0.000111 s⁻¹ with SARS-CoV-2 Alpha株S-ECD蛋白; 0.000102 s⁻¹ with SARS-CoV-2 Beta株S-ECD蛋白; 0.000146 s⁻¹ with SARS-CoV-2 Gamma株S-ECD蛋白; 0.000133 s⁻¹ with SARS-CoV-2 Delta株S-ECD蛋白. Further, the kon came to 135000 M⁻¹ s⁻¹ in the experiment with SARS-CoV-2 WT S-ECD蛋白; 134000 M⁻¹ s⁻¹ with SARS-CoV-2 Alpha株S-ECD蛋白; 103000 M⁻¹ s⁻¹ with SARS-CoV-2 Beta株S-ECD蛋白; 102000 M⁻¹ s⁻¹ with SARS-CoV-2 Gamma株S-ECD蛋白; 69600 M⁻¹ s⁻¹ with SARS-CoV-2 Delta株S-ECD蛋白. Further, the “假病毒中和 EC50 (luciferase, HEK293T cells)” value stood at 4.11 ng/mL in the experiment with SARS-CoV-2 Alpha株病毒的S蛋白, 3.56 ng/mL in the experiment with SARS-CoV-2 Beta株病毒的S蛋白, 3.83 ng/mL with SARS-CoV-2 Gamma株病毒的S蛋白 and 7.29 ng/mL with SARS-CoV-2 Delta株病毒的S蛋白. Moreover, the “真病毒中和 EC50 (Vero E6 cells, crystal violet)” value with SARS-CoV-2 Beta株病毒的S蛋白 is 69 ng/mL; with SARS-CoV-2 Delta株病毒的S蛋白, 79 ng/mL.

These data come from CN113735969A (INST MILITARY MEDICINE ACADEMY MILITARY SCIENCES PLA, dated 2021).
